Measured values taken from the supplement of paper PMC12667976.
± gives the standard error.

B1: library; numbered along this chain (parent)
chain: MATDAALRRLLRLHRTEIAVAVDSAFPLLHALADHDVVPEDKFQETLHLKEKEGCPQAFHALLSWLLTQDSTAILDFWRVLFKDYNLERYGRLQPILDSFPKDVDLSQPRKGRKPPAVPKALVPPPRLPTKRKASEEARAAAPAALTPRGTASPGSQLKAKPPKKPESSAEQQRLPLGNGIQTMSASVQRAVAMSSGDVPGARGAVEGILIQQVFESGGSKKCIQVGGEFYTPSKFEDSGSGKNKARSSSGPKPLVRAKGAQGAAPGGGEARLGQQGSVPAPLALPSDPQLHQKNEDECAVCRDGGELICCDGCPRAFHLACLSPPLREIPSGTWRCSSCLQATVQEVQPRAEEPRPQEPPVETPLPPGLRSAGEEVRGPPGEPLAGMDTTLVYKHLPAPPSAAPLPGLDSSALHPLLCVGPEGQQNLAPGARCGVCGDGTDVLRCTHCAAAFHWRCHFPAGTSRPGTGLRCRSCSGDVTPAPVEGVLAPSPARLAPGPAKDDTASHEPALHRDDLESLLSEHTFDGILQWAIQSMARPAAPFPS

Variants of: B1
Test: AIRE transcriptional activation functional score (insulin promoter-GFP; nonsense median 0, synonymous median 1) (normalised score); higher = higher AIRE activity (more reporter activation)
Conditions: with insulin promoter-GFP reporter in HEK293
Protocol: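 Deep mutational scan of full-length human AIRE (codon-optimized cDNA, DT-POPCode NNN libraries over three regions) integrated at a Bxb1 landing pad in HEK293 cells carrying an insulin core promoter-GFP reporter at a Flp-In site. Cells were sorted for the top 10% GFP about 14 days after transfection. Variant frequency log-ratios (select vs non-select, TileSeq) were rescaled so that the nonsense median is 0 and the synonymous median is 1, then averaged over biological replicates.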

AIRE transcriptional activation functional score, by site and new letter:
G178: N 0.294 ± 0.24 | S 1.26 ± 0.51 | Q 0.33 ± 0.56 | R 1.49 ± 0.85 | F 1.08 ± 0.051 | Y 1.89 ± 0.3 | E 0.493 ± 0.29 | M 1.65 ± 0.15 | V 1.28 ± 0.4 | D 0.549 ± 0.096 | L 1.58 ± 0.25 | W 0.64 ± 0.071 | A 0.405 ± 0.5 | P 0.532 ± 0.25 | K 0.788 ± 0.31 | I 1.74 ± 0.37 | C 1.22 ± 0.6 | T 1.11 ± 0.67
S185: T 1.56 ± 0.21 | P 0.302 ± 0.12 | V 0.26 ± 0.26 | M -0.432 ± 0.26 | G 0.881 ± 0.2 | L -0.0826 ± 0.26 | R 0.854 ± 0.2 | I 0.353 ± 0.38 | H -0.313 ± 0.18 | D 0.436 ± 0.23 | C 0.855 ± 0.08 | K 1 ± 0.13 | Y 0.264 ± 0.11 | Q 0.746 ± 0.13 | F 0.468 ± 0.24 | W 0.557 ± 0.095 | A 0.878 ± 0.34 | N 0.832 ± 0.055 | E 0.209 ± 0.22
L175: C 0.818 ± 0.68 | I 0.709 ± 0.34 | D 1.04 ± 0.98 | M 1.05 ± 0.1 | P 0.463 ± 0.91 | T 0.916 ± 0.35 | N 0.295 ± 0.16 | R 1.06 ± 0.47 | E -0.0357 ± 0.4 | A 0.583 ± 0.43 | G 0.614 ± 0.4 | W 1.8 ± 0.038 | S 0.686 ± 0.34 | F 1.16 ± 0.46 | Q 1.1 ± 0.28 | V 0.629 ± 0.38 | H 1.33 ± 0.61 | K 0.766 ± 0.2 | Y 1.5 ± 0.28
M184: W 0.275 ± 0.042 | S 0.488 ± 0.41 | Q 0.653 ± 0.15 | T 0.688 ± 0.47 | Y 0.481 ± 0.1 | R 0.932 ± 0.42 | A 0.129 ± 0.52 | V 0.51 ± 0.29 | I 0.983 ± 0.13 | N 0.0346 ± 0.28 | F 0.676 ± 0.1 | D -0.962 ± 0.4 | G 1.01 ± 0.16 | P 0.519 ± 0.19 | L 0.411 ± 0.29 | E -0.977 ± 0.11
A170: H 1.86 ± 0.43 | I 0.784 ± 0.32 | Q 0.496 ± 1.3 | V 0.782 ± 0.44 | T 0.748 ± 0.48 | K 1.97 ± 0.053 | E 0.67 ± 0.35 | N 1.2 ± 0.4 | W 1.84 ± 0.11 | S 0.78 ± 0.85 | Y 2.08 ± 0.5 | R 1.29 ± 0.37 | L 0.356 ± 0.53 | M 0.0569 ± 0.083 | F 1.69 ± 0.33 | C 1.24 ± 0.41 | G 0.778 ± 0.51 | D 0.761 ± 0.51 | P 0.929 ± 0.39
Q173: C 1.51 ± 0.6 | A 0.957 ± 0.65 | K 1.44 ± 0.27 | G 0.757 ± 0.42 | P 1.05 ± 0.46 | M 2.11 ± 0.16 | T 1.44 ± 0.49 | N 1.68 ± 0.1 | L 1.52 ± 0.42 | Y 1.93 ± 0.35 | F 1.97 ± 0.15 | W 1.54 ± 0.13 | H 0.885 ± 0.53 | V 1.32 ± 0.38 | S 1.34 ± 0.43 | R 1.67 ± 0.6 | D 0.988 ± 0.11 | I 1.45 ± 0.48 | E 0.663 ± 0.18
R174: Q 0.21 ± 0.27 | G 0.531 ± 0.32 | P 0.727 ± 0.47 | L 0.495 ± 0.31 | T 0.614 ± 0.36 | N -0.393 ± 0.74 | E 0.744 ± 0.072 | I 0.22 ± 0.17 | M 0.283 ± 0.12 | V 0.506 ± 0.34 | W 2.14 ± 0.036 | F 1.53 ± 0.19 | S 0.758 ± 0.32 | D 0.334 ± 0.27 | A 0.803 ± 0.46 | H 0.805 ± 0.43 | K 0.973 ± 0.29 | Y 1.09 ± 0.19 | C 0.35 ± 0.28
S169: F 1.46 ± 0.39 | L 1.7 ± 0.48 | D 1.22 ± 0.41 | Q 0.286 ± 1.9 | A 0.813 ± 0.42 | I 1.2 ± 0.35 | T -0.214 ± 1.1 | W 1.57 ± 0.081 | N 1.18 ± 0.7 | P 1.73 ± 0.82 | C 0.968 ± 0.17 | V 1.35 ± 0.67 | K 1.77 ± 1.8 | Y 1.62 ± 0.17 | G 1.42 ± 0.78 | R 0.711 ± 0.96 | E 0.245 ± 0.73 | M 0.503 ± 0.25
I181: M 0.958 ± 0.058 | C 0.211 ± 0.088 | L 0.717 ± 0.29 | K 0.076 ± 0.41 | A 0.485 ± 0.14 | F 1.59 ± 0.068 | Y 1.13 ± 0.46 | Q -0.331 ± 0.19 | P -1.22 ± 0.25 | G 0.602 ± 0.39 | S 0.834 ± 0.54 | T 0.242 ± 0.54 | E 0.0205 ± 0.7 | V 0.788 ± 0.34 | D 0.3 ± 0.12 | H -0.417 ± 0.21 | R 0.684 ± 0.36 | N 1.53 ± 0.38 | W 1.14 ± 0.07
A186: C 1.29 ± 0.13 | E 0.734 ± 0.25 | F -0.0353 ± 0.21 | D 1.11 ± 0.061
G180: H 1.31 ± 0.17 | S 0.929 ± 0.73 | L 0.0432 ± 0.4 | D 0.474 ± 0.23 | E 0.208 ± 0.15 | K 1.02 ± 0.72 | T 0.839 ± 0.76 | A 1.21 ± 0.29 | R 1.63 ± 0.47 | Y 0.548 ± 0.48 | F -0.106 ± 0.1 | C 1.24 ± 0.26 | N 1.23 ± 0.37 | I 0.248 ± 0.49 | P -1.38 ± 0.43 | M 0.445 ± 0.06 | W -0.0444 ± 0.1 | V 0.54 ± 0.23
P176: A 1.33 ± 0.48 | H 1.07 ± 0.25 | T 0.957 ± 0.38 | N 0.411 ± 0.54 | M 2.1 ± 0.086 | W 1.08 ± 0.08 | C 2.34 ± 0.29 | F 1.46 ± 0.3 | G 0.765 ± 0.56 | Y 1.88 ± 0.23 | V 1.54 ± 0.26 | R 1.63 ± 0.56 | E 0.297 ± 0.71 | I 1.65 ± 0.34 | K 1.33 ± 0.44 | S 1.4 ± 0.46 | L 1.6 ± 0.3 | D -0.465 ± 0.61
L177: W 2.38 ± 0.031 | A 0.839 ± 0.37 | T 0.252 ± 0.31 | C 0.72 ± 0.4 | F 1.5 ± 0.34 | K 1.09 ± 0.27 | H 1.01 ± 0.47 | G -0.4 ± 0.62 | Q 0.719 ± 0.33 | Y 1.89 ± 0.44 | S 0.553 ± 0.33 | E -0.132 ± 0.43 | V 0.75 ± 0.67 | P 0.397 ± 0.62 | D 0.322 ± 0.41 | I 0.748 ± 0.51 | M 1.57 ± 0.099 | R 0.707 ± 0.43 | N 0.575 ± 0.061
Q172: M 2.4 ± 0.11 | T 1.56 ± 1.1 | C 1.13 ± 0.49 | N 0.691 ± 0.23 | W 1.71 ± 0.064 | D 1.14 ± 0.11 | P 0.611 ± 0.23 | R 1.46 ± 0.51 | V 1.18 ± 0.13 | S 0.645 ± 0.63 | E 0.286 ± 0.3 | L 1.55 ± 0.33 | K 0.844 ± 0.4 | F 1.82 ± 0.32 | Y 1.7 ± 0.64 | H 1.81 ± 0.24 | A 0.74 ± 0.7 | G 0.609 ± 0.35 | I 2.08 ± 0.26
Q182: M 0.383 ± 0.048 | P 0.264 ± 0.28 | E 1.46 ± 0.24 | V -0.0151 ± 0.32 | T 1.69 ± 0.48 | Y 0.181 ± 0.057 | K 1.73 ± 0.34 | R 1.3 ± 0.36 | N 1.54 ± 0.41 | A 1.52 ± 0.54 | D 0.345 ± 0.72 | H 1.91 ± 0.22 | W 0.0615 ± 0.37 | F -0.279 ± 0.19 | S 1.05 ± 0.52 | I -0.398 ± 0.24 | L 0.0585 ± 0.2 | C 1.4 ± 0.33 | G 0.423 ± 0.34
N179: V 1.49 ± 0.36 | Y 1.15 ± 0.086 | I 1.15 ± 0.12 | S 0.818 ± 0.51 | E 1.14 ± 0.4 | K 1.14 ± 0.18 | L 0.991 ± 0.34 | W -2.31 ± 0.17 | R 1.52 ± 0.74 | G 0.991 ± 0.43 | T 1.79 ± 0.58 | C 1.26 ± 0.56 | A 1.53 ± 0.52 | Q -0.585 ± 0.21 | F 0.503 ± 0.13 | H 1.97 ± 0.35 | D 0.42 ± 0.23 | M 1.62 ± 0.043 | P 1.71 ± 0.12
T183: A 0.69 ± 0.4 | G 0.735 ± 0.22 | D 0.425 ± 0.043 | V 0.738 ± 0.28 | N 1.18 ± 0.098 | Q 0.469 ± 0.075 | E 0.451 ± 0.27 | M 0.663 ± 0.087 | I 0.211 ± 0.1 | Y -0.205 ± 0.25 | F 0.248 ± 0.33 | C 1.48 ± 0.11 | P 0.392 ± 0.43 | K 0.924 ± 0.3 | L 0.699 ± 0.17 | H 0.652 ± 0.16 | W 0.659 ± 0.14 | S 0.952 ± 0.32 | R 0.948 ± 0.29
S168: W 1.46 ± 0.22 | H 1.23 ± 0.37 | R 1.36 ± 0.38 | Q 0.489 ± 0.33 | G 0.755 ± 0.42 | N 0.613 ± 0.67 | L 0.825 ± 0.32 | M 1.47 ± 0.27 | K 1.08 ± 0.18 | V 0.761 ± 0.57 | Y 1.37 ± 0.18 | T 1.06 ± 0.4 | P -0.113 ± 0.67 | I 0.348 ± 0.5
E171: G 1.27 ± 0.47 | D 0.998 ± 0.39 | Y 1.41 ± 0.3 | N 1.05 ± 0.48 | R 1.22 ± 0.71 | L 1.59 ± 0.33 | K 0.709 ± 0.61 | I 1.63 ± 0.24 | M 2.07 ± 0.032 | A 1.77 ± 0.5 | S 1.96 ± 0.47 | T 1.52 ± 0.65 | Q 1.15 ± 0.54 | W 1.93 ± 0.073 | H 1.64 ± 0.16 | F 2.29 ± 0.26 | C 1.96 ± 0.16 | P 1.23 ± 0.76 | V 1.65 ± 0.49
